Measurements as given in PMC2796084 (Biochemistry, 2009).

Target: the molecule itself
Assay: tryptophan fluorescence

B1: FtsZ-L68W (natural protein, E. coli, UniProt P0A9A6 1-383, looked up)
chain: MFEPMELTNDAVIKVIGVGGGGGNAVEHMVRERIEGVEFFAVNTDAQALRKTAVGQTIQIGSGITKGWGAGANPEVGRNAADEDRDALRAALEGADMVFIAAGMGGGTGTGAAPVVAEVAKDLGILTVAVVTKPFNFEGKKRMAFAEQGITELSKHVDSLITIPNDKLLKVLGRGISLLDAFGAANDVLKGAVQGIAELITRPGLMNVDFADVRTVMSEMGYAMMGSGVASGEDRAEEAAEMAISSPLLEDIDLSGARGVLVNITAGFDLRLDEFETVGNTIRAFASDNATVVIGTSLDPDMNDELRVTVVATGIGMDKRPEITLVTNKQVQQPVMDRYQQHGMAPLTQEQKPVAKVVNDNAPQTAKEPDYLDIPAFLRKQAD
binding result: binds
